Data: US20230295310A1 (ABCELLERA BIOLOGICS, published 2023)

B1: mAb 241 (antibody, V domains shown)
VH: QEQLVESGGGVVQPGRSLRLSCAASGFIFSSYGMHWVRQAPGKGLEWVAIIWYNGKKRDYADSVKGRFTISRDNSKNTLYLQMNSLRAEDTAVYYCARGLGYNWFDPWGQGTLVTVSS
VL: AIVLTQSPDFQSVTPKEKVTITCRASQNIGSSLHWYQQKPDQSPKLLIKYASQSFSGVPSRFSGSGSGTDFTLTINSLEAEDAATYYCHQSGSLPYTFGQGTKLEIK
notes: VH/VL only
B2: mAb 235 (antibody, V domains shown)
VH: QGKLVESGGGVVQPGRSLRLSCVASGFTFSGYGMHWVRQAPNKGLEWVAIIYYDGKNKYYADSVKGRFTVSRDNSKNTLYLQLNNLRAEDTAVYYCVRGPGYNWFDPWGQGTLVTVSS
VL: EIVLTQSPDFQSVTPKEKVTITCRASQNIGSSLHWYQQKPDQSPKLFIKHASQSFSGVPSRFSGSGSGTDFTLTINSLEAEDAATYYCHQSSSLPYTFGQGTKLEIK
notes: VH/VL only
B3: mAb 233 (antibody, V domains shown)
VH: QGKLVESGGGVVQPGRSLRLSCVASGFTFSGYGMHWVRQVPNKGLEWVAIIYYDGKNKYYADSVKGRFTISRDNSKNMLYLQMNSLRAEDTAVYYCVRGPGYNWFDPWGQGTLVTVSS
VL: EIVLTQSPDFQSVTPKEKVTITCRASQNIGSSLHWYQQKPDQSPKLLIKLTSQSFSGVPSRFSGSGSGTDFTLTINSLEAEDAATYYCHQSSSLPYTFGQGTKLEIK
notes: VH/VL only
B4: mAb 246 (antibody, V domains shown)
VH: QEQLVESGGGVVQPGRSLRLSCAASGFTFRSYGMHWVRQAPGKGLEWVAIIWYDGKNKYYADSVKGRFTISRDNSKNTLYLQMNSLRAEDTAVYYCARGLGYNWFDPWGQGTLVTVSS
VL: EIVLTQSPDFQSVTPKEKVTITCRASQSIGSSLHWYQQKPDQSPKLLIKYGSQSFSGVPSRFSGSGSGTDFTLTINSLEAEDAATYYCHQSSSLPYTFGQGTKLEIK
notes: VH/VL only
B5: mAb 244 (antibody, V domains shown)
VH: QEQLVESGGGVVQPGRSLRLSCAASGFTFRSYGMHWVRQAPGKGLEWVAIIWYDGKNKYYADSVKGRFTISRDNSKNTLYLQMNSLRVEDTAVYYCARGLGYNWFDPWGQGTLVTVTS
VL: EIVLTQSPDFQSVTPKEKVTITCRASQSIGSSLHWYQQKPDQSPKLLIKYASQTFSGVPSRFSGSGSGTDFTLTINSLEVEDAATYYCHQSSSLPNTFGQGTKLEIK
notes: VH/VL only
B6: mAb 249 (antibody, V domains shown)
VH: QEQLVESGGGVVQPGRSLRLSCAASGFTFRSYGMHWVRQAPGKGLEWVAIIWYDGKNKYYADSVKGRFTISRDNSKNTLYLQMNSLRAEDTAVYYCARGLGYNWFDPWGQGTLVTVSS
VL: EIVLTQSPDFQSVTPKEKVTITCRASQSIGSSLHWYQQKPDQSPKLLIKYASQSFSGVPSRFSGSGSGTDFTLTINSLEAEDAATYYCHQSSSLPYTFGQGTKLEIK
notes: VH/VL only
B7: mAb 247 (antibody, V domains shown)
VH: QEQLVESGGGVVQPGRSLRLSCAASGFIFSSYGMHWVRQAPGKGLEWVAIIWYNGKKRDYADSVKGRFTISRDNSKNTLYLQMNSLRAEDTAVYYCARGLGYNWFDPWGQGTLVTVSS
VL: EIVLTQSPDFQSVTPKDKVTITCRASQSIGSSLHWYQQKPDQSPKLLIKYASQSFSGVPSRFSGSGSGTDFTLTINSLEAEDAATYYCHQSSTLPYTFGQGTKLEIK
notes: VH/VL only
B8: mAb 265 (antibody, V domains shown)
VH: EVQLLESGGGLVQPGGSLRLSCAASGFTFRSSSMTWVRQAPGKGLEWVSGIRGSGGRTYDAESVKGRFTISRDNSKNTLYLQMNSLRAEDTAEYFCAKLYDYYNDYMDVWGKGTTVTVSS
VL: SYELTQPLSVSVALGQTARITCGGNNIGSKNVHWYQQKPGQAPVLVIYRDSNRPSGIPERFSGSNSGNTATLTISRAQAGDEADYYCQVWDSSTAVFGGGTQLTAL
notes: VH/VL only

target: T1, cynomolgus monkey CD3 expressed on cyno primary T cells (cynomolgus monkey, UniProt Q95LI5 22-198; Q95LI8 22-171; Q95LI7 23-181); test: flow cytometry, cyno primary T cells
T1 construct: whole, on cells; CD3 complex on purified cynomolgus monkey CD3 pan T cells; also called cyno CD3
T1 sequence (Q95LI5 22-198, chain 1 of 3): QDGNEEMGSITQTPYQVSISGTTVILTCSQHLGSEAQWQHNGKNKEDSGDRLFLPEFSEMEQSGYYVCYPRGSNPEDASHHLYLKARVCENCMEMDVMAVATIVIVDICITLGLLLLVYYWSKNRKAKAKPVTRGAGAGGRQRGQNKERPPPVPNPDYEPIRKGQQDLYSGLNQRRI
T1 sequence (Q95LI8 22-171, chain 2 of 3): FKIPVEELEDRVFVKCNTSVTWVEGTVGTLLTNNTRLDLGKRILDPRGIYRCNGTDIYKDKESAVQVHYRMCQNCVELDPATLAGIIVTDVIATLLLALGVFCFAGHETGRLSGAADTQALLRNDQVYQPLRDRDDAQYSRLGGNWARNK
T1 sequence (Q95LI7 23-181, chain 3 of 3): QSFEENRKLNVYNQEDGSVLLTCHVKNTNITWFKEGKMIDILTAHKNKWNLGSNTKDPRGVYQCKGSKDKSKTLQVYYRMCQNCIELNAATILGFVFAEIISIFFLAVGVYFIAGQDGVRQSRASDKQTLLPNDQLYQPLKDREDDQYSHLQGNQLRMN
Description: Purified antibodies were confirmed to bind CD3 expressed on cells using the CytoFLEX S or LX flow cytometers (Beckman Coulter). Antibodies were diluted to 25 nM in FACS buffer (PBS+2% FBS) and were incubated with CD3-expressing cells for 30 minutes at 4° C. […] The median fluorescence intensity of the binding signal for each antibody was normalized to the isotype control to obtain a fold over isotype value. An antibody with a fold over isotype (FOI) of ≥10 was considered to be positive for binding.

Row | Binder | binding result
1 | B1 | no binding (tested: FOI <10 (FOI >=10 = positive); 25 nM)
2 | B2 | no binding (tested: FOI <10 (FOI >=10 = positive); 25 nM)
3 | B3 | no binding (tested: FOI <10 (FOI >=10 = positive); 25 nM)
4 | B4 | no binding (tested: FOI <10 (FOI >=10 = positive); 25 nM)
5 | B5 | no binding (tested: FOI <10 (FOI >=10 = positive); 25 nM)
6 | B6 | no binding (tested: FOI <10 (FOI >=10 = positive); 25 nM)
7 | B7 | no binding (tested: FOI <10 (FOI >=10 = positive); 25 nM)
8 | B8 | no binding (tested: FOI <10 (FOI >=10 = positive); 25 nM)
